Changes are numbered by the printed parent chain.

For series [1], the target named is T1, Rv2745-S (ClgR, stabilized/soluble form) (Mycobacterium tuberculosis, UniProt P9WMH7 1-112, V111D;A112D).
T1 sequence: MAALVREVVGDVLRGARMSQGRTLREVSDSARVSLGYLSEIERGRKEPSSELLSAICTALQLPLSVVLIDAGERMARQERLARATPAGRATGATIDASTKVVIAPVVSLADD
Briefly: EMSA. Conditions: protein: recombinant; tags: NusA fusion and His tag (pET50b), removed with HRV3C protease; chain copies: 2; label: 5' Cy5.5; blunt. For orientation: A gel shift assay detects complexes by their altered migration in electrophoresis.

The next series deals with T2, Rv2745-S L24SR25D (DBL) (Mycobacterium tuberculosis, UniProt P9WMH7 1-112, L24S;R25D;V111D;A112D).
T2 sequence: T1 sequence with L24S, R25D
As to the kind of experiment: EMSA. Conditions: protein: recombinant; chain copies: 2; label: 5' Cy5.5; blunt.

In series [2] the target is T1, Rv2745-S (ClgR, stabilized/soluble form). Briefly: competition. Conditions: protein: recombinant; tags: NusA fusion and His tag (pET50b), removed with HRV3C protease; chain copies: 2; blunt.

B1: clpC1 promoter probe (dsDNA)
DNA 1: CGAGCGGCCATCGGTTCGCCGCCAGCGAACGCGGCAAAGTAC
DNA 2: GTACTTTGCCGCGTTCGCTGGCGGCGAACCGATGGCCGCTCG
On to B1, for which the binding result is “binds” in series [1] and “no binding” with Rv2745-S L24SR25D (DBL).

B2: clpC1 promoter unlabeled competitor (dsDNA)
DNA 1: B1 DNA 1
DNA 2: B1 DNA 2
With B2, in series [2], the binding result is given as “binds”.

The values are drawn from paper PMC2905415, “Characterization of a Clp Protease Gene Regulator and the Reaeration Response in Mycobacterium tuberculosis”.
